Substrate in series [1]: N[C@@H](CO)C(=O)O
As to the kind of experiment: purified protein. The settings on record: 100 μM palmitoyl-CoA, 25 μM PLP, pH 7.5, 30 °C, active site in LCB2a/LCB1.

Substrate in series [2]: CCCCCCCCCCCCCCCC(=O)SCCNC(=O)CCNC(=O)[C@H](O)C(C)(C)COP(=O)(O)OP(=O)(O)OC[C@H]1O[C@@H](n2cnc3c(N)ncnc32)[C@H](O)[C@@H]1OP(=O)(O)O
As to the kind of experiment: purified protein. The settings on record: 100 mM L-serine, 25 μM PLP, pH 7.5, 30 °C, active site in LCB2a/LCB1. The class given is biochemical, Arabidopsis thaliana.

By Km is commonly meant the substrate concentration at which the rate is half of its maximum.

B1: AtSPT-ORM1 complex (LCB1, LCB2a, SPTssa, ORM1) (Arabidopsis thaliana) (protein)
chain 1: MITIPYLTAVSTYFSYGLLFAFGQLRDFFRRFIDWWFTSNLQGYAPICLGHEDFYIRRLYHRIQDCFERPISSAPDAWFDVVERYSNDNNKTLKRTTKTSRCLNLGSYNYLGFGSFDEYCTPRVIESLKKFSASTCSSRVDAGTTSVHAELEECVTRFVGKPAAVVFGMGYATNSAIIPVLIGKGGLIISDSLNHSSIVNGARGSGATIRVFQHNTPSHLERVLREQIAEGQPRTHRPWKKIIVVVEGIYSMEGEICHLPEVVAICKKYKAYVYLDEAHSIGAIGKTGKGICELLGVDTADVDVMMGTFTKSFGSCGGYIAGSKELIQYLKHQCPAHLYATSIPTPSAQQIISAIKVILGEDGSNRGAQKLARIRENSNFFRAELQKMGFEVLGDNDSPVMPIMLYNPAKIPAFSRECLRQKVAVVVVGFPATPLLLARARICISASHSREDLIRALKVISKVGDLSGIKYFPAEPKKIEQSKNDIKLD
chain 2: MANLYVKAVPPPDMNRNTEWFMYPGVWTTYMLILFFGWLVVLSVSGCSPGMAWTVVNLAHFVVTYHSFHWMKGTPFADDQGIYNGLTWWEQMDNGQQLTRNRKFLTLVPVVLYLIASHTTDYRHPWLFLNTLAVMVLVVAKFPNMHKVRIFGINGDK
chain 3: MASNLVEMFNAALNWVTMILESPSARVVLFGVPIRGHFFVEGLLGVVIIILLTRKSYKPPKRPLTEQEIDELCDEWVPEPLIPPITEDMKHEPPVLESAAGPHTTVNGKDVVNFASANYLGLIGHEKLLESCTSALEKYGVGSCGPRGFYGTIDVHLDCETRISKFLGTPDSILYSYGLSTMFSTIPCFCKKGDVIVADEGVHWGIQNGLQLSRSTIVYFKHNDMESLRITLEKIMTKYKRSKNLRRYIVAEAVYQNSGQIAPLDEIVKLKEKYRFRVILDESNSFGVLGRSGRGLAEHHSVPIEKIDVVTAAMGHALATEGGFCTGNARIIDYQRLSSSGYVFSASLPPYLASAAITAIDVIDQNPDMLVKLKQNVALLWKGLSDIKGMSLTSNRESPIVFLKLEKSSGSAKDDLLLLEKMADRALKEDSLLVVSSKRSFLDKCRLPVGIKLYVSAGHSESDLLKASESLKRLASELLLKS
notes: full-length codon-optimized cDNAs; N-terminal Flag on SPTssa, other chains untagged; HEK293F, GDN; dimer of 1:1:1:1 protomers; endogenous ceramide copurifies; with Long chain base biosynthesis protein 1; Serine palmitoyltransferase small subunit A
For the protein B1, the Michaelis constant (Km) in the series “purified protein [1]” came to 10.44 ± 0.88 mM. Further, the K0.5 in “purified protein [2]” was 69.05 ± 6.13 µM.

B2: AtSPT complex (LCB1, LCB2a, SPTssa) (Arabidopsis thaliana) (protein)
chain 1: MITIPYLTAVSTYFSYGLLFAFGQLRDFFRRFIDWWFTSNLQGYAPICLGHEDFYIRRLYHRIQDCFERPISSAPDAWFDVVERYSNDNNKTLKRTTKTSRCLNLGSYNYLGFGSFDEYCTPRVIESLKKFSASTCSSRVDAGTTSVHAELEECVTRFVGKPAAVVFGMGYATNSAIIPVLIGKGGLIISDSLNHSSIVNGARGSGATIRVFQHNTPSHLERVLREQIAEGQPRTHRPWKKIIVVVEGIYSMEGEICHLPEVVAICKKYKAYVYLDEAHSIGAIGKTGKGICELLGVDTADVDVMMGTFTKSFGSCGGYIAGSKELIQYLKHQCPAHLYATSIPTPSAQQIISAIKVILGEDGSNRGAQKLARIRENSNFFRAELQKMGFEVLGDNDSPVMPIMLYNPAKIPAFSRECLRQKVAVVVVGFPATPLLLARARICISASHSREDLIRALKVISKVGDLSGIKYFPAEPKKIEQSKNDIKLD
chain 2: MASNLVEMFNAALNWVTMILESPSARVVLFGVPIRGHFFVEGLLGVVIIILLTRKSYKPPKRPLTEQEIDELCDEWVPEPLIPPITEDMKHEPPVLESAAGPHTTVNGKDVVNFASANYLGLIGHEKLLESCTSALEKYGVGSCGPRGFYGTIDVHLDCETRISKFLGTPDSILYSYGLSTMFSTIPCFCKKGDVIVADEGVHWGIQNGLQLSRSTIVYFKHNDMESLRITLEKIMTKYKRSKNLRRYIVAEAVYQNSGQIAPLDEIVKLKEKYRFRVILDESNSFGVLGRSGRGLAEHHSVPIEKIDVVTAAMGHALATEGGFCTGNARIIDYQRLSSSGYVFSASLPPYLASAAITAIDVIDQNPDMLVKLKQNVALLWKGLSDIKGMSLTSNRESPIVFLKLEKSSGSAKDDLLLLEKMADRALKEDSLLVVSSKRSFLDKCRLPVGIKLYVSAGHSESDLLKASESLKRLASELLLKS
notes: full-length codon-optimized cDNAs; N-terminal Flag on SPTssa, other chains untagged; HEK293F, GDN; without ORM1; with Serine palmitoyltransferase small subunit A
In the case of B2, the Km in the series “purified protein [1]” is listed as 7.33 ± 0.65 mM. Besides, the K0.5 in the series “purified protein [2]” was 8.29 ± 0.80 µM.

The values above are taken from article PMC10058238, “Mechanism of sphingolipid homeostasis revealed by structural analysis of Arabidopsis SPT-ORM1 complex” (Science Advances, 2023).
